Columns and labels:
Experiment in all cases: Co-IP with immunoblot quantification
BLOS2 = BLOS2 (UniProt Q9CWG9); details: uninfected cells cultured overnight; IP: BLOS1; parent: est. 100; read off a plot
KXD1 = KXD1 (UniProt Q80XH1); details: uninfected cells cultured overnight; IP: BLOS1; parent: est. 100; read off a plot
PALLIDIN = PALLIDIN (UniProt Q9R0C0); details: uninfected cells cultured overnight; IP: BLOS1; parent: est. 100; read off a plot
SNAPIN = SNAPIN (UniProt Q9Z266); details: read off a plot
Sequence of UniProt Q9Z266 (Q9Z266 whole entry): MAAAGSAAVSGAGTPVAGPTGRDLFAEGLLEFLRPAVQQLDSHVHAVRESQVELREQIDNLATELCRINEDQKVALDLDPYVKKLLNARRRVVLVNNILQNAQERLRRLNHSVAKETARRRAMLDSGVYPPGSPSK

Sequence of UniProt Q9R0C0 (Q9R0C0 whole entry): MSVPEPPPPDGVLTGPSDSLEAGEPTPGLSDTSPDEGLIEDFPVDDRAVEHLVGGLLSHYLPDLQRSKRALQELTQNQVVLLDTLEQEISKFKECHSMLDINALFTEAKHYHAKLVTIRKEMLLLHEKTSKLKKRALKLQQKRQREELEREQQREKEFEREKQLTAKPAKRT
Sequence of UniProt Q80XH1 (Q80XH1 whole entry): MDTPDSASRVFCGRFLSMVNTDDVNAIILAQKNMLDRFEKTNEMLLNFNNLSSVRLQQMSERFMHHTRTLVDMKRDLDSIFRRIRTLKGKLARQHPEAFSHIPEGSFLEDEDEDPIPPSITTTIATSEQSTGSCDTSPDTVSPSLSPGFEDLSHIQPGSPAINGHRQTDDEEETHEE
Sequence of UniProt Q9CWG9 (Q9CWG9 whole entry): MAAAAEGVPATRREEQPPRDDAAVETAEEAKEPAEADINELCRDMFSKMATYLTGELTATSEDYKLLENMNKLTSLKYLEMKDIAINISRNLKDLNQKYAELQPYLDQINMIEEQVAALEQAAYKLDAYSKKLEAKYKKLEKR

Substance: BLOS1 [biogenesis of lysosome-related organelles complex-1 (BLOC-1) subunit 1] (from UniProt O55102) mBloc1s1 (first XAT hexapeptide-repeat motif EALDVH changed to EVVDH or EVDH)
- percent of parent (BLOS2): 5%
- percent of parent (KXD1): 10%
- percent of parent (PALLIDIN): 22%
- response (SNAPIN; parent: est. 0.67): 0.07
- response (SNAPIN; parent: est. 1.0): 0.18
- percent of parent (SNAPIN; uninfected cells cultured overnight, IP: BLOS1, parent: est. 100): 10%
